In patent publication EP4722241A1 (Jiksak Bioengineering, Inc., dated 2024):

Legend:
[1] = target: T1, pan-hSYT2 (antigenic peptide for panning, Human SYT2 position 1-62) (human, lysine residue bound to biotin (position marked only in a picture of the sequence)); test: BLI (Octet RED96e), biotinylated pan-hSYT2 on streptavidin biosensor, antigen loaded at 0.05 ug/mL
T1 construct: Synthetic biotinylated peptide, immobilised on streptavidin biosensors in the Octet measurements; also called N-terminal domain of human Synaptotagmin 2
T1 peptide: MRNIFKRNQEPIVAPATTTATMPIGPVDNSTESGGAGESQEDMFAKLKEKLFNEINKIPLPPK

[2] = target: T1, pan-hSYT2 (antigenic peptide for …); test: BLI (Octet RED96e), same manner as Example 2, antigen loaded at 0.2 ug/mL

| Binder | Kd [1] [nM] | koff [1] [s⁻¹] | kon [1] [M⁻¹ s⁻¹] | koff [2] [s⁻¹] |
| --- | --- | --- | --- | --- |
| first monoclonal antibody according to the present invention (antibody, human IgG1, V domains shown, Mouse VH and VL from a phage display scFv clone; also called first antibody; first anti-SYT2 antibody) VH: EVQLQESGAELVRPGASVKLSCKASGYTFTDYEMHWVKQTPVHGLEWIGAIDPETGGTAYNQKFKGKATLTADKSSSTAYMELRSLTSEDSAVYYCTRGNDGYNEDYWGQGTTLTVSS VL: not shown | 0.0267 | 7.01e-06 | 263000 |  |
| second monoclonal antibody according to the present invention (antibody, human IgG1, V domains shown, also called second antibody; second anti-SYT2 antibody) VH: QVQLQQSGAELVRPGASVKLSCKASGYTFTDYEMHWVKQTPVHGLEWIGAIDPETGGTAYNQKFKGKATLTADKSSSTAYMELRSLTSEDSAVYYCTRGNDGYNEDYWGQGTSLTVSS VL: not shown |  |  |  | 1.35e-05 |
